How the values were obtained:
Settings in all cases: FMN input: 0 or 200 uM; Eterna round: R93 (includes R88 designs)
MS2 coat protein [1] = experiment: apparent KD of MS2 coat protein, switch ON state; designed switch direction (-1 OFF switch, 1 ON switch): 1; higher = weaker reporter binding
Method in brief: (§1)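 Designed RNA switches, transcribed on-chip from Illumina sequencing clusters, were titrated with SNAP-549-labelled MS2 coat protein from 0.7 or 1.5 nM to 3 µM in twofold steps. The solution was 100 mM Tris-HCl pH 7.5, 80 mM KCl, 4 mM MgCl2, with constant ligand or without it. Apparent KD is the median over each design's normalised cluster binding-curve fits.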

MS2 coat protein [2] = experiment: apparent KD of MS2 coat protein, switch OFF state (with FMN for OFF switches, without FMN for ON switches); designed switch direction (-1 OFF switch, 1 ON switch): 1; higher = weaker reporter binding
Method in brief: as §1

MS2 coat protein [3] = experiment: apparent KD of MS2 coat protein, switch ON state; designed switch direction (-1 OFF switch, 1 ON switch): -1; higher = weaker reporter binding
Method in brief: as §1

MS2 coat protein [4] = experiment: apparent KD of MS2 coat protein, switch OFF state (with FMN for OFF switches, without FMN for ON switches); designed switch direction (-1 OFF switch, 1 ON switch): -1; higher = weaker reporter binding
Method in brief: as §1

| Sequence | apparent KD of MS2 coat protein (MS2 coat protein [1]) | apparent KD of MS2 coat protein (MS2 coat protein [2]) | apparent KD of MS2 coat protein (MS2 coat protein [3]) | apparent KD of MS2 coat protein (MS2 coat protein [4]) |
| --- | --- | --- | --- | --- |
| GAGGACAUAGUAUAGGAUAUAUGAAUAAUUACAUGAGGAUCACCCAUGUGCAUUUAUAUGCGAACAUAGAAGGGUGGUAGUUAUC [SameState2 Malc#32] | 0.0416 µM | 0.037 µM |  |  |
| GACGGACAUGAGGAUCACCCAUGUCGGAAAAGGCAAGGAUAUGGGCGGUACCAAUUUCGGUCAGAAGGUGCAAAAG [Beenedriar] | 0.117 µM | 0.061 µM |  |  |
| AACAAUCUAUCUGAGGAUAUCAUGUCAAAGACAUGAGGAUCACCCAUGUACCAGGAAACUGGUUAUGAGAAGGCAGAUAGAUUGA [SS2: 1115] | 0.0373 µM | 1.29 µM |  |  |
| GGGAGGAAGAGAGAGGAUAUCCAAAGGAAAACAUGAGGAUCACCCAUGUAAAAGGUAGGAAAUUGGGAGAAGGCUCAAAAGAGGG [salish99-ss2-038] | 0.0298 µM | 0.0406 µM |  |  |
| CAGAAGGAGAGAGAGGAUAUCCAAAGGAAAACAUGAGGAUCACCCAUGUAAAAGGUAGGAAAUUGGGAGAAGGCUCAAGAGAGAG [salish99-ss2-110] | 0.0332 µM | 0.0333 µM |  |  |
| AAAUAAAUAAGAGAGGAUAUGUCAGAGAAAACAUGAGGAUCACCCAUGUGAUAAUAAAAAGGGUGACAGAAGGCUCAAAACAAAC [Topaz 52] | 0.0199 µM | 0.0593 µM |  |  |
| AACAAUCUAUCUGAGGAUAUCAUGACAAAGACAUGAGGAUCACCCAUGUGCAGGAAAACUGCUUAUGAGAAGGCAGAUAGAUUGA [SS2: 1113] | 0.011 µM | 0.0146 µM |  |  |
| AACAAUCUAUCUGAGGAUAUGUGUCAAAAGACAUGAGGAUCACCCAUGUAAAAACAUGAAAAAACACAGAAGGCAGAUAGAUUGA [SS2: 1148] | 0.0418 µM | 0.0593 µM |  |  |
| GAAAAACAUGAGGAUCACCCAUGUUAAUAUAUGGGAGGAUAUACAAAGACGAAAGUCAAAGUAGAAGGCCUAAAAG | 0.0197 µM | 0.0433 µM |  |  |
| AUAAAAUAAAGGGAGGAUAUCUAUAAUAAAACAUGAGGAUCACCCAUGUUAAAAAGAAGAUCAUGGGAGAAGGCCUAAAAUAAAU [SS2 M 30] | 0.0379 µM | 0.0461 µM |  |  |
| AAGAAGUGAGGAUAUGUAUCAGUAUAGUUGCCUAUACUGAUGUAGAAGGCACAUGAGGAUCACCCAUGUCCUAA [Exclusion4-cac1] |  |  | 0.0217 µM | 0.0308 µM |
| AAAAGGUGAGGAUAUAGGAAAAUAAAAUAAAAUAAAAUAAACUAGAAGGCACAUGAGGAUCACCCAUGUAAUAA [LROPPY Exclusion 4 - v03_deltaG=3.54 break up the As] |  |  | 0.0251 µM | 0.017 µM |
| AAGAAGUGAGGAUAUGCUGCUCGUCACUUGCGUGAUGAGUAGCAGAAGGCACAUGAGGAUCACCCAUGUAAAAA [Mat - Exaclusion 4 - Eli mod - D2] |  |  | 0.0348 µM | 0.0457 µM |
| GUAGAGUGAGGAUAUGAUUAAAAGAAGGGAAAGAGACAGCAUCAGAAGGCACAUGAGGAUCACCCAUGUAUGAA [JR_Exc004_Sub1224] |  |  | 0.0269 µM | 0.0271 µM |
| UAAAGACAUGAGGAUCACCCAUGUGAGGAUAUCGGAGAUAACAGAACAUCAAGUUCAGCGAGAAGGCACAGGAA [JR_Exc001_Sub403] |  |  | 0.047 µM | 0.0655 µM |
| AAAAAGUGAGGAUAUACAUGAGGAUCACCCAUGUGAAAGUCGAAAAAAAAGACAAGAAGUAGAAGGCACAAAAA [Fiskers Exclusion 3 D2 variant] |  |  | 0.0243 µM | 0.0293 µM |
| GCUGGCCAAGGAUAUACAUGAGGAUCACCCAUGUGAGAGAAAAAAGUGAGAAAGAAAAGUAGAAGGUGGUUAGG [salish99-ex3-114] |  |  | 0.0439 µM | 0.041 µM |

| Sequence | apparent KD of MS2 coat protein (MS2 coat protein [1]) | apparent KD of MS2 coat protein (MS2 coat protein [2]) | apparent KD of MS2 coat protein (MS2 coat protein [3]) | apparent KD of MS2 coat protein (MS2 coat protein [4]) |
| --- | --- | --- | --- | --- |
| AACCGACAUGAGGAUCACCCAUGUAAGGAUAUGCAUCCUUCGGCCCGGACCAGAGGAAGCAGAAGGUGCAGGGA [Iscegebia] |  |  | 0.0431 µM | 0.0412 µM |
| GAAAAGUCAGGAUAUGUGGAAAAAAUAAAAAAAAUAAAAACACAGAAGGGACAUGAGGAUCACCCAUGUAAAAG [Mat - Exclusion 4 - Mayanna - D141] |  |  | 0.101 µM | 0.0622 µM |
| GCUGGGCAAGGAUAUACAUGAGGAUCACCCAUGUGAGAGAAAAAAGUGAGAAAGAAAAGUAGAAGGUGCUUAGG [salish99-ex3-119] |  |  | 0.0458 µM | 0.0779 µM |
| AAAUGCUGAGGAUAUACAUGAGGAUCACCCAUGUAAAAUAAAUAAUGGAUGUAAACGUGUAGAAGGCAGCAUAA [Exclusion 3.14b (FMN+ favored )] |  |  | 0.0796 µM | 0.023 µM |
| AAGAGUAGAGGAUAUACGAAAAAAGAGUCGAAAGACUCGGGACAUGAGGAUCACCCAUGUAGAAGGCUACUCAA [Hyphema Seclusion Mod 62% 5] |  |  | 0.022 µM | 0.11 µM |
| AAGAACCAAGGAUAUACAUGAGGAUCACCCAUGUAAAAGAAAGAAGGGAAAGAGAAAAGUAGAAGGUGGAAGAA [Djedkaure Shebitku] |  |  | 0.0283 µM | 0.0227 µM |
| AGCUCGGUAGGAUAUACAAAAUGAUUGCGAAAGCAAUCAACACAUGAGGAUCACCCAUGUAGAAGGACCGAGCA [Mat - Exclusion 2 - JL-Eli mod - D42] |  |  | 0.0152 µM | 0.02 µM |
| CAACAGUCAGGAUAUGCAAAAAAAACGCAACGCAAAAAAAAGCAGAAGGGACAUGAGGAUCACCCAUGUUGUCG [Exclusion4-03] |  |  | 0.0295 µM | 0.0229 µM |
| GAAAAUCGAGGAUAUACAUGAGGAUCACCCAUGUCAAAAAAUGACUACACAAAAGAAAGUAGAAGGCGAUAAAG [Mat - Exclusion 3 - Mayanna mod - D130] |  |  | 0.0288 µM | 0.0312 µM |
| AACAGGUUAGGAUAUAUGUAACAAAUAAAAAAAAUAUAAACAUAGAAGGAACAUGAGGAUCACCCAUGUUAACA [May 29] |  |  | 0.0297 µM | 0.0194 µM |
| AAGAAACAUGAGGAUCACCCAUGUGAGGAUAUUCAAGAAAGAAAGAAAGAAAGAAGAAGAAGAAGGCACAAAGG [Lucius Seius Strabo] |  |  | 0.029 µM | 0.032 µM |
| AAAAAUGGAGGAUAUACAUGAGGAUCACCCAUGUGUGACUAUACUAAGCGCUCCUCAGGUAGAAGGCCAAAAAA [Gilly Gone Silly 16 - Jieux - Exclusion 3] |  |  | 0.0835 µM | 0.0995 µM |
| AAGAACGUAGGAUAUACUAAAGAAAUGAAAAGAAAUAAAGAACAUGAGGAUCACCCAUGUAGAAGGACGAAGAA [Nebdjefare] |  |  | 0.0291 µM | 0.0252 µM |
| AAGAAGCAAGGAUAUACAUGAGGAUCACCCAUGUAAAAGAAAGAAAAGGGAAAGAAAAGUAGAAGGUGCGAAAA [Ruby 70] |  |  | 0.0299 µM | 0.0519 µM |
| GCUGUGGUAGGAUAUACAUGAGGAUCACCCAUGUGAGAGAAAAAAGUGAGAAAGAAAAGUAGAAGGACCGUAGG [salish99-ex3-101] |  |  | 0.049 µM | 0.0789 µM |
| AGAAAGUGAGGAUAUACGAAACCAGCCUAAAUGGCUGGAAAGUAGAAGGCACAUGAGGAUCACCCAUGUAAAGA [Ex4 sub 1] |  |  | 0.0323 µM | 0.0434 µM |
